Measurements: patent US20240279281A1, “Peptide Inhibitors of Interleukin-23 Receptor” (Janssen Pharmaceutica NV, priority 2023, published 2024)
Starred links: 1 amine or outer side, 2 acyl side, 3 side chain; linkers in the order of their positions; H or OH if unused. Positions of bridges follow the written chain, without caps; N, C: chain ends. Non-standard residues stand in square brackets, D forms with d. No end group written: not given here. X1 = 3‑(7-(3-acetamidophenyl)-1H-indol-3-yl)‑2‑aminopropanoic acid, CC(=O)Nc1cccc(-c2cccc3c(CC(N[*:1])C(=O)[*:2])c[nH]c23)c1; X3 = 4‑(2-(4-(2-amino-2-carboxyethyl)phenoxy)ethyl)‑4‑methylmorpholin‑4‑ium, C[N+]1(CCOc2ccc(CC(N[*:1])C(=O)[*:2])cc2)CCOCC1; X10 = 2‑amino‑3‑(4-(2-guanidinoethoxy)phenyl)propanoic acid, N=C(N)NCCOc1ccc(CC(N[*:1])C(=O)[*:2])cc1; Trp(7-(3-AcNH-Ph)) = CC(=O)Nc1cccc(-c2cccc3c(C[C@H](N)C(=O)O)c[nH]c23)c1; N‑methyl‑N‑acetyllysine = N-methyl-N-acetyllysine; 2Nal(6-OH) = N[C@@H](Cc1ccc2cc(O)ccc2c1)C(=O)O; Trp(7-Me) = Cc1cccc2c(C[C@H](N)C(=O)O)c[nH]c12; dLys(Me3) = C[N+](C)(C)CCCC[C@@H](N)C(=O)O; AEF = NCCOc1ccc(C[C@H](N)C(=O)O)cc1; 3Pal = N[C@@H](Cc1cccnc1)C(=O)O; d(hLys) = NCCCCC[C@@H](N)C(=O)O; Pen = CC(C)(S)[C@H](N)C(=O)O; αMeC = C[C@](N)(CS)C(=O)O; Thp = NC1(C(=O)O)CCOCC1; Abu = CC[C@H](N)C(=O)O; Sar = CNCC(=O)O

T1: interleukin-23 receptor (IL-23R), Q5VWK5
T1 chain: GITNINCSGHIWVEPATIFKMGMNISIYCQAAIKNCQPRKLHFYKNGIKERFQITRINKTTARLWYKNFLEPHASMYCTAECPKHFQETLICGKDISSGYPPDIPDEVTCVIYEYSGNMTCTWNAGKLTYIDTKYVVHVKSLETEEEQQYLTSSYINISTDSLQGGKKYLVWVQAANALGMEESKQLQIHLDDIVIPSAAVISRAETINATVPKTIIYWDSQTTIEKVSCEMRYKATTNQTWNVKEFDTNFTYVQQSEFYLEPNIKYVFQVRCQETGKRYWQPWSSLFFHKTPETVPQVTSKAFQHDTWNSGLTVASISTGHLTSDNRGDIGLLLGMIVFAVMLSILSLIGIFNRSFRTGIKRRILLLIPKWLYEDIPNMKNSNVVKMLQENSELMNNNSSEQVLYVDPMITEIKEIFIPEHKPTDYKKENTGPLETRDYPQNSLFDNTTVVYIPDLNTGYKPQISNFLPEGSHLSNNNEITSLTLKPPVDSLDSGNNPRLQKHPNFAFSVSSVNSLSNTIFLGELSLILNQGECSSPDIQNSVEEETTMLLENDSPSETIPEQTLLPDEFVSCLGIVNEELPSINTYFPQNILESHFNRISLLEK


Target: T1, interleukin-23 receptor (IL-23R), Q5VWK5
Experiment: cell-based or functional assay

Row | IL23R Reporter Assay IC50 [µM] | PBMC pSTAT3 IC50 [nM] | Binder
1 | < 0.01 | < 0.01 | [dLys(Me3)]CNT[Trp(7-Me)]K(Ac)[αMeC][2‑amino‑3‑(4-(2-aminoethoxy)phenyl)propanoic acid][2‑amino‑3‑(6-hydroxynaphthalen-2-yl)propanoic acid][Thp]EN[3Pal][Sar] (ends and bridges not checked) [SEQ ID NO: 8]
2 | < 0.01 | < 0.1 | R[Abu]NTWK(Ac)[αMeC][X10][2Nal(6-OH)][Thp]K(Ac)N[3Pal][Sar] (ends and bridges not checked) [SEQ ID NO: 7]
3 | < 0.01 | < 0.01 | [Pen]NT[Trp(7-Me)]K(Ac)[Pen][X3][2Nal(6-OH)][Thp]EN[3Pal][Sar] (disulfide 1-6 (inferred); ends not checked) [SEQ ID NO: 56]
4 |  | < 1 | R[Pen]NT[Trp(7-Me)]K(Ac)[Pen][AEF][2Nal(6-OH)][Thp]ENH[Sar] (disulfide 2-7 (inferred); ends not checked) [SEQ ID NO: 57]
5 | < 0.01 | < 0.1 | R[Pen]NTWK(Ac)[Pen][AEF][2Nal(6-OH)][Thp]EN[3Pal][Sar] (not fully specified (bridges); ends and bridges not checked) [SEQ ID NO: 74]
6 |  | < 1 | K[Pen]ET[Trp(7-Me)]K(Ac)[Pen][AEF][2Nal(6-OH)][Thp]K(Ac)N[3Pal][Sar] (disulfide 2-7 (inferred); ends not checked) [SEQ ID NO: 134]
7 |  | < 1 | [d(hLys)](Me3)[Pen]NT[Trp(7-Me)]K[Pen][AEF][2Nal(6-OH)][Thp]K(Ac)N[3Pal][Sar] (disulfide 2-7 (inferred); ends not checked; also: K6: lipidated lysine, lipid not given here) [SEQ ID NO: 119]
8 |  | < 1 | R[Pen]NT[Trp(7-(3-AcNH-Ph))]K(Ac)[Pen][X3][2Nal(6-OH)][Thp]EN[Thp] (disulfide 2-7 (inferred); ends not checked) [SEQ ID NO: 110]
9 | < 0.01 | < 0.01 | [Pen]NT[Trp(7-(3-AcNH-Ph))]K(Ac)[Pen][AEF][2Nal(6-OH)][Thp]EN[3Pal][Sar] (not fully specified (bridges); ends and bridges not checked) [SEQ ID NO: 69]
10 | < 0.01 | < 0.1 | R[Pen]NT[Trp(7-Me)]K(Ac)[Pen][5‑(4-(2-amino-2-carboxyethyl)phenoxy)‑N,N,N‑trimethylpentan‑1‑aminium][2Nal(6-OH)][Thp]K(Ac)N[3Pal][Sar] (disulfide 2-7 (inferred); ends not checked) [SEQ ID NO: 58]
11 |  | < 1 | [Pen]NT[Trp(7-Me)]K(Ac)[Pen][AEF][2Nal(6-OH)][Thp]KN[3Pal][Sar] (disulfide 1-6 (inferred); ends not checked; also: K10: lipidated lysine, lipid not given here) [SEQ ID NO: 128]
12 |  | < 1 | [Pen]NT[Trp(7-Me)]K[Pen][AEF][2Nal(6-OH)][Thp]K(Ac)N[3Pal][Sar] (disulfide 1-6 (inferred); ends not checked; also: K5: lipidated lysine, lipid not given here) [SEQ ID NO: 131]
13 |  | < 1 | R[Pen]NT[Trp(7-(3-AcNH-Ph))]K(Ac)[Pen][X3][2Nal(6-OH)][Thp]ENH[Sar] (disulfide 2-7 (inferred); ends not checked) [SEQ ID NO: 64]
14 |  | < 0.1 | [Pen]NT[Trp(7-Me)]K[Pen][AEF][2Nal(6-OH)][Thp]K(Ac)N[3Pal][Sar] (disulfide 1-6 (inferred); not fully specified (residue 5); ends not checked; also: K5: lipidated lysine, lipid not given here) [SEQ ID NO: 96]
15 | < 0.01 | < 1 | R[Pen]NT[Trp(7-(3-AcNH-Ph))]K(Ac)[Pen]Y[2Nal(6-OH)][Thp]EN[3Pal][Sar] (disulfide 2-7 (inferred); ends not checked) [SEQ ID NO: 65]
16 | < 0.01 | < 0.01 | [Pen]NT[Trp(7-Me)]K(Ac)[Pen][5‑(4-(2-amino-2-carboxyethyl)phenoxy)‑N,N,N‑trimethylpentan‑1‑aminium][2Nal(6-OH)][Thp]EN[3Pal][Sar] (not fully specified (bridges); ends and bridges not checked) [SEQ ID NO: 79]
17 | < 0.01 | < 1 | [Pen]NT[Trp(7-(3-AcNH-Ph))]K(Ac)[Pen][X3][2Nal(6-OH)][Thp][N‑methyl‑N‑acetyllysine]NH[Sar] (disulfide 1-6 (inferred); ends not checked) [SEQ ID NO: 62]
18 |  | < 1 | [Pen]NT[Trp(7-Me)]K(Ac)[Pen][AEF][2Nal(6-OH)][Thp]KN[3Pal][Sar] (disulfide 1-6 (inferred); ends not checked; also: K10: lipidated lysine, lipid not given here) [SEQ ID NO: 129]
19 |  | < 1 | K[Pen]NT[Trp(7-Me)]K(Ac)[Pen][AEF][2Nal(6-OH)][Thp]K(Ac)N[3Pal][Sar] (disulfide 2-7 (inferred); ends not checked; also: K1: lipidated lysine, lipid not given here) [SEQ ID NO: 118]
20 | < 0.01 | < 0.1 | [dLys(Me3)][Pen]NT[Trp(7-Me)]K(Ac)[Pen][5‑(4-(2-amino-2-carboxyethyl)phenoxy)‑N,N,N‑trimethylpentan‑1‑aminium][2Nal(6-OH)][Thp]EN[3Pal][Sar] (not fully specified (bridges); ends and bridges not checked) [SEQ ID NO: 67]
21 | < 0.01 | > 1 | [Pen]NT[X1]K(Ac)[Pen][X10][2‑amino‑3‑(6-hydroxynaphthalen-2-yl)propanoic acid][Thp]EN[3Pal][Sar] (ends and bridges not checked) [SEQ ID NO: 9]
22 | < 0.01 | < 0.1 | R[Abu]NT[Trp(7-(3-AcNH-Ph))]K(Ac)[αMeC][AEF][2Nal(6-OH)][Thp]EN[3Pal][Sar] (ends and bridges not checked) [SEQ ID NO: 6]
23 |  | < 1 | R[Pen]NT[Trp(7-Me)]K(Ac)[Pen][AEF][2Nal(6-OH)][Thp]EN[3Pal][Sar]K (disulfide 2-7 (inferred); ends not checked; also: K15: lipidated lysine, lipid not given here) [SEQ ID NO: 116]
24 | < 0.01 | < 0.01 | R[Pen]NT[Trp(7-Me)]K(Ac)[Pen][X3][2Nal(6-OH)][Thp]EN[3Pal][Sar] (not fully specified (bridges); ends and bridges not checked) [SEQ ID NO: 77]
25 |  | < 1 | K[Pen]NT[Trp(7-Me)]K(Ac)[Pen][AEF][2Nal(6-OH)][Thp]EN[3Pal][Sar] (disulfide 2-7 (inferred); ends not checked; also: K1: lipidated lysine, lipid not given here) [SEQ ID NO: 126]
26 | < 0.01 | < 0.1 | [Pen]NT[Trp(7-(3-AcNH-Ph))]K(Ac)[Pen][5‑(4-(2-amino-2-carboxyethyl)phenoxy)‑N,N,N‑trimethylpentan‑1‑aminium][2Nal(6-OH)][Thp]EN[3Pal][Sar] (disulfide 1-6 (inferred); ends not checked) [SEQ ID NO: 63]
